Assay: soluble on expression in E. coli; label from the status in PepcDB or PDB records

| Sequence | soluble on expression in E. coli |
| --- | --- |
| GHMKSEKEKMLAGHLYNPADLELVKERERARRLVRLYNETLETEYDKRTGLLKELFGSTGERLFIEPNFRCDYGYNIHVGENFFMNFDGVILDVCEVRIGDHCFIGPGVHIYTATHPLDPHERNSGLEYGKPVVIGHNVWIGGRAVINPGVTIGDNAVIASGAVVTKDVPANAVVGGNPAKVIKWLK | soluble |
| GHMNVKLKVFHAGSLTEPMKAFKRAFEEKHPNVEVQTEAAGSAATIRKVTELGRKADVIATADYTLIQKMMYPEFANWTIMFAKNQIVLAYRNDSRYADEINSQNWYEILKRPDVRFGFSNPNDDPCGYRSLMAIQLAELYYNDPTIFDELVAKNSNLRFSEDNGSYVLRMPSSERIEINKSKIMIRSMEMELIHLVESGELDYFFIYKSVAKQHGFNFVELPVEIDLSSPDYAELYSKVKVVLANGKEVTGKPIVYGITIPKNAENRELAVEFVKLVISEEGQEILRELGQEPLVPPRADTAVPSLKAMVEVS | soluble |
| GHMPAYVFSKESFLKFLEGHLEDDVVVVVSSDVTDFCKKLSESMVGEKEYCFAEFAFPADIFDADEDEIDEMMKYAIVFVEKEKLSEAGRNAIR | soluble |
| GHMPTKQQLLYEGKAKKIYATDEPDVLWVEYKDSATAFNGEKKATIAGKGRLNNEISSLLFLKLREAGIANHFIEKLSPTEQLVRRVTIIPLEVVVRNVVAGSLAKRIGLEEGTPLEAPLVEFYYKNDDLGDPLLLEDHIFILKLASREEVAALKQAALAVNDVLRLHFAERNVRLIDFKLEFGRTADGAILLADEISPDTCRLWDAKTNEKLDKDVFRRDLGSLTDAYEVILQRLGGESACTK | soluble |
| GHMRRELAIEFSRVTESAALAGYKWLGRGDKNTADGAAVNAMRIMLNQVNIDGTIVIGEGEIDEAPMLYIGEKVGTGRGDAVDIAVDPIEGTRMTAMGQANALAVLAVGDKGCFLNAPDMYMEKLIVGPGAKGTIDLNLPLADNLRNVAAALGKPLSELTVTILAKPRHDAVIAEMQQLGVRVFAIPDGDVAASILTCMPDSEVDVLYGIGGAPEGVVSAAVIRALDGDMNGRLLARHDVKGDNEENRRIGEQELARCKAMGIEAGKVLRLGDMARSDNVIFSATGITKGDLLEGISRKGNIATTETLLIRGKSRTIRRIQSIHYLDRKDPEMQVHIL | soluble |
| GHMYETIRYEVKGQVAWLTLNRPDQLNAFTEQMNAEVTKALKQAGADPNVRCVVITGAGRAFCAGEDLSGVTEEMDHGDVLRSRYAPMMKALHHLEKPVVAAVNGAAAGAGMSLALACDFRLLSEKASFAPAFIHVGLVPDAGHLYYLPRLVGRAKALELAVLGEKVTAEEAAALGLATKVIPLSDWEEEVKQFAERLSAMPTKAIGLIKRLLRESEETTFDRYLEREAECQRIAGLTSDHREGVKAFFEKRKPLFQGN | soluble |
| GKDAHVILRSNFTLSKNKILNWEDTKKPYTYLENNGYANNVQRGFVAMGLFKDQQDVEMSPTQFGTVRPGDIKYRDINGDGKITDDDKVPLFAYSGVPQLMYGIGAEFRYKSWTLNVLFKGTGRNKFLYGGSDGRNFDGYMPFNQKDKGNIMTIAYNPENRWISAEYSGNQATENPNARFPRLYYGKNENNTKPSTFWMGDARYLRLQELSLAYNLKVPALQRILGINSMNIQLMCENLAVWDSVNIFDPEQATSCGQAYPLPARYSLQLYLNF | not soluble |
| GKPIRSPGVLLDIDSRRTAEAERDRLNELLQIFTAAVPGVVYAKDLEGRMLVANRGTAELVGKPPEFFIGKTDLEFLDDEQQARVLMETDQRIMQSNVSEQIEEKVNLADGSAAIWLSTKAPLLDRN | not soluble |
| GKSASMAVEEIASRKDISLRDMQISAILKMLFLNKDLNNNDNITTITDDIFNQQEIIWKVLILDIKSTATISSVLRVNDLLKAGITVHSLIKQDRSPLPDVPAIYFVSPTKENIDIIVNDLKSDKYSEFYINFTSSLPRNLLEDLAQQVSITGKSDKIKQVYDQYLDFIVTEPELFSLEISNAYLTLNDPKTTEEEITGLCANIADGLFNTVLTINSIPIIRAAKGGPAEIIAEKLGTKLRDFVINTNSSSTSTLQGNDSLERGVLIILDRNIDFASMFSHSWIYQCMVFDIFKLSRNTVTIPLESKENGTDNTTAKPLATKKYDIEPNDFFWMENSHLPFPEAAENVEAALNTYKEEAAEITRKTGVTNISDLDPNSNNDTVQIQEVVKKLPELTAKKNTIDTHMNIFAALLSQLESKSLDTFFEVEQDPGSTKTRSRFLDILKDGKTNNLEDKLRSFIVLYLTSTTGLPKDFVQNVENYFKENDYDINALKYVYKLREFMQLSNMSLQNKSLEDGSDSAFKPSNLTLSGIYGLTEGKLQGGVGSLISGIKKLLPEKKTIPITNVVDAIMDPLNSSQKNLETTDSYLYIDPKITRGSHTRKPKRQSYNKSLVFVVGGGNYLEYQNLQEWAHSQLHNPKKVMYGSTAITTPAEFLNEISRLGASNSSNNDA | soluble |
| GLDTGALDQQQNNNGRESIRTVNVSVNNAVTKIVSNMSPAVVGVVNIQKSDIWGESGEAGSGSGVIYKKNDHSAYVVTNHHVIEGASQIEISLKDGSRVSADLVGSDQLMDLAVLRVKSDKIKAVADFGNSDKVKSGEPVIAIGNPLGLEFAGSVTQGVISGTERAIPVDSNGDGQPDWNAEVLQTDAAINPGNSGGALLNMDGKVIGINSMKIAESAVEGIGLSIPSKLVIPVIEDLERYGKVKRPFLGIEMKSLSDIASYHWDETLKLPKNVTNGAVVMGVDAFSPAGKAGLKELDVITEFDGYKVNDIVDLRKRLYQKKVGDRVKVKFYRGGKEKSVDIKLSSA | not soluble |
| GLEAVRKRPGMYIGSTSERGLHHLVWEIVDNSIDEALAGYANQIEVVIEKDNWIKVTDNGRGIPVDIQEKMGRPAVEVILTSSVVNALSQDLEVYVHRNETIYHQAYKKGVPQFDLKEVGTTDKTGTVIRFKADGEIFTETTVYNYETLQQRIRELAFLNKGIQITLRDERDEENVREDSYHYE | soluble |
| GLGNVDETLEIKQLLNIYRDLQLGHFCAFYQPQKHIDSGGVVAFEALARRVIGKGLYEMPDRFFPILEKYHLIPTLTEVMVRDILTFLMTEDAVLQDITIGVNIPGKMLTDGSFYRLLLSVAEEKQAQHALHRLSVEITEHDLIADFDAAKHEIYKLKSLGIRCALDDFGTGYSGYEYLCEIPFDVVKIDGRYIQSLGKAESSTVILQSMISSIKSLSMQVIAEWVDSDQQYQILQEMGCDLVQGYLVSPA | not soluble |
| GMAEQMRRVARLFGDWPETIIWTCLEGTMGDIYVDDSQSPQSALALYGRQSFFGFLAGQPHRDLLKICEGKNIILVPQNQAWSDLIEEVYGDGVRFFTRYATKKDTEFDLGHLQKLVDDLPESFDMKLIDRNLYETCLVEEWSRDLVGNYIDVEQFLDLGLGCVILHKGQVVSGASSYASYSAGIEIEVDTREDYRGLGLAKACAAQLILACLDRGLYPSWDAHTLTSLKLAEKLGYELDKAYQAYEWR | soluble |
| GMDNWQDITDDRLVRPIHPGEVIADILDDLDINTANFAEILGVSNQTIQEVINGQRSITVDIAIRLGKALGNGPRLWLNLQQKVDLWYALQSHKEEYEQVMTLV | soluble |
| GMEKRLDYITDLMALGPTANARTIQRRQTAHRLAIAEAWQVKPGEKILEIGCGQGDLSAVLADQVGSSGHVTGIDIASPDYGAPLTLGQAWNHLLAGPLGDRLTVHFNTNLSDDLGPIADQHFDRVVLAHSLWYFASANALALLFKNMAAVCDHVDVAEWSMQPTALDQIGHLQAAMIQGLLYAIAPSDVANIRTLITPDTLAQIAHDNTWTYTAGTIVEDPTLDDAHWEIATTNALLTELKLSTDLRDRVKPLLEAMSHNGTASLATFTGRITF | soluble |
| GMIDEKFLIESNELVESSKIVMVGTNGENGYPNIKAMMRLKHDGLKKFWLSTNTSTRMVERLKKNNKICLYFVDDNKFAGLMLVGTIEILHDRASKEMLWTDGCEIYYPLGIDDPDYTALCFTAEWGNYYRHLKNITFKIDEIYNY | soluble |
| GMKEDTIEIAGFHAHVYFDAASRDVAARVREGLGARFEVQLGRWFDKPIGPHPKGMYQVAFLPNQFDKVVPWLMLNREGLDILVHPETGDAVSDHAVYSLWLGAALALNIEFLRQLSSTSSN | soluble |
| GMKFNEFLNNLSNYEPGKDIEVIAKEYGVKEVIKLASNENPFGTPPKAIECLRQNANKAHLYPDDSMIELKSTLAQKYKVQNENIIIGAGSDQVIEFAIHSKLNSKNAFLQAGVTFAMYEIYAKQCGAKCYKTQSITHNLDEFKKLYETHKDEIKLIFLCLPNNPLGECLDASEATEFIKGVNEDCLVVIDAAYNEFASFKDSKKHLEPCELIKEFDNVLYLGTFSKLYGLGGLRIGYGIANANIISAFYKLRAPFNVSNLALKAAVAAMDDDEFTEKTLENNFSQMELYKEFAKKHNIKIIDSYTNFITYFFDEKNSTDLSEKLLKKGIIIRNLKSYGLNAIRITIGTSYENEKFFTEFDKILR | soluble |
| GMLELVGEYWEQLKITVVPVVAAAEDDDNEQHEEKAAEGEEKEEENGDEDEDEDEDEDDDDDDDEDEEEEEEVTDQLEDLREHFKNTEEGKALVHHYEECAERVKIQQQQPGYADLEHKEDCVEEFFHLQHYLDTATAPRLFDKLK | soluble |
| GMMNTPESRLVAAGLELPEVAAALGNYEPYSIVGSQLMTSGQFPYLQGKLLYQGQLGADYTVSEGYAACRLATLNAIAQLKQACGELSRIKQIYRLEGVLNVHQSCIEHPKALDGASDLLLEIFGEAGRHSRMIWTNPVMPLNSLCLVYLFAEL | soluble |
| GMNKKTQLLEVIAALPEELVDQALNYVQMLQNPIQITPGVCGGQARIRNTRIPVWTLVAYRQQGAPDKELLANYPGLTAEDLSAAWHYYEQNPEQIDREIAQDDLV | soluble |
| GMNSNFSYPALGVDGISSQISPIRDVWSTNLQQEMNLIMSLIERYPVVSMDTEFPGVVARPLGVFKSSDDYHYQTLRANVDSLKIIQIGLALSDEEGNAPVEACTWQFNFTFNLQDDMYAPESIELLTKSGIDFKKHQEVGIEPADFAELLIGSGLVLQEEVTWITFHSGYDFAYLLKAMTQIPLPAEYEEFYKILCIYFPKNYDIKYIMKSVLNNSKGLQDIADDLQIHRIGPQHQAGSDALLTARIFFEIRSRYFDGSIDSRMLNQLYGLGSTGSVLWHNNSSTPQIQFRDLPGAHPSPTPSNAGIPTTLTNTSSAPNFANSTFRFPPRVV | soluble |
| GMRGLIVDYAGVLDGTDEDQRRWRNLLAAAKKNGVGTVILSNDPGGLGAAPIRELETNGVVDKVLLSGELGVEKPEEAAFQAAADAIDLPMRDCVLVDDSILNVRGAVEAGLVGVYYQQFDRAVVEIVGLFGLEGEF | soluble |
| GMRNPSEDHMMRTPYQIVADHYAASDRHDPAAMMADIAPAIEWTEMAGFPCAGTYRSADEIVRNVFRRLGEEWDGYTFKLDALHDAGDTVIGVGRYSGTYRRTGKSFECRVAHVWRVDAGKIVHFEQFTDTLLVAQAMQP | soluble |
| GMSDDLTDAQTAAIPEGFSQLNWSRGFGRQIGPLFEHREGPGQARLAFRVEEHHTNGLGNCHGGMLMSFADMAWGRIISLQKSYSWVTVRLMCDFLSGAKLGDWVEGEGELISEEDMLFTVRGRIWAGERTLITGTGVFKALSARKPRPGELAYKEEA | soluble |

— the DeepSol protein solubility set
